{"source": "patent US20220356259A1", "about": "(SHIHUDA PHARMACEUTICAL GROUP JILIN, published 2022)", "key": {"[1]": {"target": "T1, fusion protein in which the extracellular domain of human GITR is fused with the domain of mouse IgG1-Fc (human)", "T1 construct": "The GITR part is said to start at residue 1 of Q9Y5U5, so the entry may hold a signal peptide; Made in HEK293 cells, Protein A purified; also called hGITR-muFc; human GITR protein", "T1 chain": "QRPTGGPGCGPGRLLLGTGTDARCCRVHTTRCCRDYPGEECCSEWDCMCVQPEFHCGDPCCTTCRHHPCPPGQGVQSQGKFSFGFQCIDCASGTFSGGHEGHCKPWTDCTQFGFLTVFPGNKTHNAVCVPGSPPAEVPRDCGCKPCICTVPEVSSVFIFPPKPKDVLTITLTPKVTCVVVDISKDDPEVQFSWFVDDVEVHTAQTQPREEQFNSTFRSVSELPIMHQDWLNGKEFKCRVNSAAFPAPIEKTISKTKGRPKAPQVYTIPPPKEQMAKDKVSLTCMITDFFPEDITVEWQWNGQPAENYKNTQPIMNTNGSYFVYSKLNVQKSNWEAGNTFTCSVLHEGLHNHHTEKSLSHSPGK", "experiment": "BLI (Octet K2), antibody on AHC biosensor, hGITR-muFc in solution from 100 nM", "protocol": "Using the BLI method, the above 9 isolated antigen-binding proteins of the present application and C3E2 were immobilized on the AHC biosensor at a concentration of 10 µg/ml. At the same time, the hGITR-muFc prepared in Example 1 was diluted 2-fold from 100 nM in 5 gradients. The reaction plate was placed on Octet K2 instrument, meanwhile the program was set as Baseline 60 s, Association 20 s, Disscociation 300 s, Baseline 2 30 s, Loading 40 s, custom 5 s. At the end of the program, curve fitting and parameter conversion were conducted."}, "[2]": {"target": "T1, fusion protein in which the …", "experiment": "ELISA, hGITR-muFc coated at 5 ug/ml, anti-human IgG-HRP (FIG. 5)", "protocol": "(§1) An ELISA plate was coated with 5 μg/ml of hGITR-muFc at 100 μl/well, and incubated overnight at 4° C. The plate was washed with 10 mM of PBS/Tween (0.05%) at pH 7.4 for 3 times, blocked with PBS containing 3% BSA and incubated at 37° C. for 2 h; then washed for 3 times, added with the above 9 isolated antigen-binding proteins of the present application in 3-fold dilutions starting from 10 μg/ml, incubated at 37° C. for 2 h, washed for 3 times, added with anti-human IgG-HRP enzyme-labeled secondary antibody, incubated at 37° C. for 1 h, cleaned, then developed with TMB substrate, and subjected to spectrophotometric analysis at OD450 nm. The results are shown in FIG. 5 and FIG. 6, in which the EC₅₀ values of various proteins in FIG. 5 and FIG. 6 are shown in Table 3 and Table 4, respectively. It can be seen from FIG. 5 and FIG. 6 as well as Table 3 and Table 4 that, the humanized antibodies (i.e., the isolated antigen-binding proteins of the present application 3E2 1-2, 3E2 1-3, 3E2 1-4, 3E2 2-2, 3E2 2-3, 3E2 2-4, 3E2 3-2, 3E2 3-3 and 3E2 3-4) have a binding affinity to the antigen that is equivalent to that of the parent antibody (i.e., the isolated antigen-binding protein C3E2 of the present application)."}, "[3]": {"target": "T1, fusion protein in which the …", "experiment": "ELISA, hGITR-muFc coated at 5 ug/ml, anti-human IgG-HRP (FIG. 6)", "protocol": "as §1"}}}
{"binder": "isolated antigen-binding protein C3E2 (antibody, human IgG1, kappa, V domains shown, made in HEK293 cells; also called parent antibody; chimeric antibody) VH: QVQLQESGPGILQPSQTLSLTCSFSGFSLSTFGMGVGWIRQPSGKGLEWLVLILWNDIKYYNPALKSLLTVSKDTSNNQVFLKIASVDTADTATYYCARVDGYYGYFDVWGTGTTVTVSS VL: DIVMTQSPLSLPVSLGDQASISCRSSQTIVHSNGNTYLEWYLQKPGQSPKLLIYKVSNRFSGVPDRFSGSGSGTDFTLKISRVEAEDLGVYYCFQGSHVPWTFGGGTKLEIKR", "values": [{"measurement": "Kd", "setting": "[1]", "value": 6.01, "unit": "pM"}, {"measurement": "koff", "setting": "[1]", "value": "1.83e-05", "unit": "s⁻¹"}, {"measurement": "kon", "setting": "[1]", "value": "3.05e+06", "unit": "M⁻¹ s⁻¹"}, {"measurement": "EC50", "setting": "[2]", "value": 6.21, "unit": "ng/mL"}, {"measurement": "EC50", "setting": "[3]", "value": 6.72, "unit": "ng/mL"}]}
{"binder": "isolated antigen-binding protein 3E2 2-3 (antibody, human IgG1, kappa, also called VHV2/VLV3) heavy: not shown light: DIVMTQSPLSLPVTLGQPASISCRSSQTIVHSNGNTYLEWYLQKPGQSPKLLIYKVSNRFSGVPDRFSGSGSGTDFTLKISRVEAEDVGVYYCFQGSHVPWTFGGGTKLEIKRTVAAPSVFIFPPSDEQLKSGTASVVCLLNNFYPREAKVQWKVDNALQSGNSQESVTEQDSKDSTYSLSSTLTLSKADYEKHKVYACEVTHQGLSSPVTKSFNRGEC", "values": [{"measurement": "Kd", "setting": "[1]", "value": "< 1", "unit": "pM"}, {"measurement": "koff", "setting": "[1]", "value": "< 1e-07", "unit": "s⁻¹"}, {"measurement": "kon", "setting": "[1]", "value": "2.46e+06", "unit": "M⁻¹ s⁻¹"}, {"measurement": "EC50", "setting": "[3]", "value": 4.71, "unit": "ng/mL"}]}
{"binder": "isolated antigen-binding protein 3E2 1-2 (antibody, human IgG1, kappa, V domains shown, also called VHV1/VLV2) VH: QVTLQESGPTLVKPTQTLTLTCTFSGFSLSTFGMGVGWIRQPPGKGLEWLVLILWNDIKYYNPALKSLLTVTKDTSKNQVVLTITNMDPVDTATYYCARVDGYYGYFDVWGQGTMVTVSS VL: DIVMTQSPLSLPVTLGQPASISCRSSQTIVHSNGNTYLEWYLQRPGQSPKLLIYKVSNRFSGVPDRFSGSGSGTDFTLKISRVEAEDVGVYYCFQGSHVPWTFGGGTKVEIKR", "values": [{"measurement": "Kd", "setting": "[1]", "value": "< 1", "unit": "pM"}, {"measurement": "koff", "setting": "[1]", "value": "< 1e-07", "unit": "s⁻¹"}, {"measurement": "kon", "setting": "[1]", "value": "2.49e+06", "unit": "M⁻¹ s⁻¹"}, {"measurement": "EC50", "setting": "[2]", "value": 5.9, "unit": "ng/mL"}]}
{"binder": "isolated antigen-binding protein 3E2 1-3 (antibody, human IgG1, kappa, also called VHV1/VLV3) heavy: not shown light: DIVMTQSPLSLPVTLGQPASISCRSSQTIVHSNGNTYLEWYLQKPGQSPKLLIYKVSNRFSGVPDRFSGSGSGTDFTLKISRVEAEDVGVYYCFQGSHVPWTFGGGTKLEIKRTVAAPSVFIFPPSDEQLKSGTASVVCLLNNFYPREAKVQWKVDNALQSGNSQESVTEQDSKDSTYSLSSTLTLSKADYEKHKVYACEVTHQGLSSPVTKSFNRGEC", "values": [{"measurement": "Kd", "setting": "[1]", "value": "< 1", "unit": "pM"}, {"measurement": "koff", "setting": "[1]", "value": "< 1e-07", "unit": "s⁻¹"}, {"measurement": "kon", "setting": "[1]", "value": "2.32e+06", "unit": "M⁻¹ s⁻¹"}, {"measurement": "EC50", "setting": "[2]", "value": 5.83, "unit": "ng/mL"}]}
{"binder": "isolated antigen-binding protein 3E2 1-4 (antibody, human IgG1, kappa, also called VHV1/VLV4) heavy: not shown light: DIVMTQSPLSLPVTLGDQASISCRSSQTIVHSNGNTYLEWYLQKPGQSPKLLIYKVSNRFSGVPDRFSGSGSGTDFTLKISRVEAEDVGVYYCFQGSHVPWTFGGGTKLEIKRTVAAPSVFIFPPSDEQLKSGTASVVCLLNNFYPREAKVQWKVDNALQSGNSQESVTEQDSKDSTYSLSSTLTLSKADYEKHKVYACEVTHQGLSSPVTKSFNRGEC", "values": [{"measurement": "Kd", "setting": "[1]", "value": "< 1", "unit": "pM"}, {"measurement": "koff", "setting": "[1]", "value": "< 1e-07", "unit": "s⁻¹"}, {"measurement": "kon", "setting": "[1]", "value": "2.55e+06", "unit": "M⁻¹ s⁻¹"}, {"measurement": "EC50", "setting": "[2]", "value": 4.52, "unit": "ng/mL"}]}
{"binder": "isolated antigen-binding protein 3E2 2-2 (antibody, human IgG1, kappa, also called VHV2/VLV2) heavy: not shown light: DIVMTQSPLSLPVTLGQPASISCRSSQTIVHSNGNTYLEWYLQRPGQSPKLLIYKVSNRFSGVPDRFSGSGSGTDFTLKISRVEAEDVGVYYCFQGSHVPWTFGGGTKVEIKRTVAAPSVFIFPPSDEQLKSGTASVVCLLNNFYPREAKVQWKVDNALQSGNSQESVTEQDSKDSTYSLSSTLTLSKADYEKHKVYACEVTHQGLSSPVTKSFNRGEC", "values": [{"measurement": "Kd", "setting": "[1]", "value": 12.5, "unit": "pM"}, {"measurement": "koff", "setting": "[1]", "value": "3.01e-05", "unit": "s⁻¹"}, {"measurement": "kon", "setting": "[1]", "value": "2.4e+06", "unit": "M⁻¹ s⁻¹"}, {"measurement": "EC50", "setting": "[2]", "value": 5.64, "unit": "ng/mL"}]}
{"binder": "isolated antigen-binding protein 3E2 2-4 (antibody, human IgG1, kappa, also called VHV2/VLV4) heavy: not shown light: DIVMTQSPLSLPVTLGDQASISCRSSQTIVHSNGNTYLEWYLQKPGQSPKLLIYKVSNRFSGVPDRFSGSGSGTDFTLKISRVEAEDVGVYYCFQGSHVPWTFGGGTKLEIKRTVAAPSVFIFPPSDEQLKSGTASVVCLLNNFYPREAKVQWKVDNALQSGNSQESVTEQDSKDSTYSLSSTLTLSKADYEKHKVYACEVTHQGLSSPVTKSFNRGEC", "values": [{"measurement": "Kd", "setting": "[1]", "value": "< 1", "unit": "pM"}, {"measurement": "koff", "setting": "[1]", "value": "< 1e-07", "unit": "s⁻¹"}, {"measurement": "kon", "setting": "[1]", "value": "2.41e+06", "unit": "M⁻¹ s⁻¹"}, {"measurement": "EC50", "setting": "[3]", "value": 4.8, "unit": "ng/mL"}]}
{"binder": "isolated antigen-binding protein 3E2 3-2 (antibody, human IgG1, kappa, also called VHV3/VLV2) heavy: not shown light: DIVMTQSPLSLPVTLGQPASISCRSSQTIVHSNGNTYLEWYLQRPGQSPKLLIYKVSNRFSGVPDRFSGSGSGTDFTLKISRVEAEDVGVYYCFQGSHVPWTFGGGTKVEIKRTVAAPSVFIFPPSDEQLKSGTASVVCLLNNFYPREAKVQWKVDNALQSGNSQESVTEQDSKDSTYSLSSTLTLSKADYEKHKVYACEVTHQGLSSPVTKSFNRGEC", "values": [{"measurement": "Kd", "setting": "[1]", "value": "< 1", "unit": "pM"}, {"measurement": "koff", "setting": "[1]", "value": "< 1e-07", "unit": "s⁻¹"}, {"measurement": "kon", "setting": "[1]", "value": "2.52e+06", "unit": "M⁻¹ s⁻¹"}, {"measurement": "EC50", "setting": "[3]", "value": 5.28, "unit": "ng/mL"}]}
{"binder": "isolated antigen-binding protein 3E2 3-3 (antibody, human IgG1, kappa, also called VHV3/VLV3) heavy: not shown light: DIVMTQSPLSLPVTLGQPASISCRSSQTIVHSNGNTYLEWYLQKPGQSPKLLIYKVSNRFSGVPDRFSGSGSGTDFTLKISRVEAEDVGVYYCFQGSHVPWTFGGGTKLEIKRTVAAPSVFIFPPSDEQLKSGTASVVCLLNNFYPREAKVQWKVDNALQSGNSQESVTEQDSKDSTYSLSSTLTLSKADYEKHKVYACEVTHQGLSSPVTKSFNRGEC", "values": [{"measurement": "Kd", "setting": "[1]", "value": "< 1", "unit": "pM"}, {"measurement": "koff", "setting": "[1]", "value": "< 1e-07", "unit": "s⁻¹"}, {"measurement": "kon", "setting": "[1]", "value": "2.49e+06", "unit": "M⁻¹ s⁻¹"}, {"measurement": "EC50", "setting": "[3]", "value": 6.04, "unit": "ng/mL"}]}
{"binder": "isolated antigen-binding protein 3E2 3-4 (antibody, human IgG1, kappa, also called VHV3/VLV4) heavy: not shown light: DIVMTQSPLSLPVTLGDQASISCRSSQTIVHSNGNTYLEWYLQKPGQSPKLLIYKVSNRFSGVPDRFSGSGSGTDFTLKISRVEAEDVGVYYCFQGSHVPWTFGGGTKLEIKRTVAAPSVFIFPPSDEQLKSGTASVVCLLNNFYPREAKVQWKVDNALQSGNSQESVTEQDSKDSTYSLSSTLTLSKADYEKHKVYACEVTHQGLSSPVTKSFNRGEC", "values": [{"measurement": "Kd", "setting": "[1]", "value": 4.72, "unit": "pM"}, {"measurement": "koff", "setting": "[1]", "value": "1.23e-05", "unit": "s⁻¹"}, {"measurement": "kon", "setting": "[1]", "value": "2.6e+06", "unit": "M⁻¹ s⁻¹"}, {"measurement": "EC50", "setting": "[3]", "value": 6.43, "unit": "ng/mL"}]}
